These results are taken from US20170043011A1.

The target in this assay is human CD81 on Hep3B hepatoma cells (human) (UniProt P60033). Nature of the assay: cell-based or functional assay.
Chain of UniProt P60033 (P60033 whole entry): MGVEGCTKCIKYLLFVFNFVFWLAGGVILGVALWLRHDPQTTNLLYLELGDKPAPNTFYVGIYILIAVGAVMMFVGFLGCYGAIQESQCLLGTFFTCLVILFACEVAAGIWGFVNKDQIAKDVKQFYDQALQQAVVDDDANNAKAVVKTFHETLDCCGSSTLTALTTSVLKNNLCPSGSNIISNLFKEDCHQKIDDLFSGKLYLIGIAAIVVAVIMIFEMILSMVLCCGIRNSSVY

In turn, “mouse anti-human CD81 monoclonal antibody, clone 1.3.3.22 (Santa Cruz Biotechnology)” returned a fold decrease in infectivity of Bole1a HCVpp on Hep3B cells (luciferase RLU) of 10 fold.
